# Numbering of substitutions follows the chain as printed. Names may count otherwise.
# T1: human GFRα1 expressed with a C-terminal human Fc tag and a hexahistidine tag (human, UniProt P56159 25-429, limits assumed)
# T1 construct: bought protein; also called hGFRα1-hFc-6His; hGFRα1-hFc-6his
# T1 sequence (looked up): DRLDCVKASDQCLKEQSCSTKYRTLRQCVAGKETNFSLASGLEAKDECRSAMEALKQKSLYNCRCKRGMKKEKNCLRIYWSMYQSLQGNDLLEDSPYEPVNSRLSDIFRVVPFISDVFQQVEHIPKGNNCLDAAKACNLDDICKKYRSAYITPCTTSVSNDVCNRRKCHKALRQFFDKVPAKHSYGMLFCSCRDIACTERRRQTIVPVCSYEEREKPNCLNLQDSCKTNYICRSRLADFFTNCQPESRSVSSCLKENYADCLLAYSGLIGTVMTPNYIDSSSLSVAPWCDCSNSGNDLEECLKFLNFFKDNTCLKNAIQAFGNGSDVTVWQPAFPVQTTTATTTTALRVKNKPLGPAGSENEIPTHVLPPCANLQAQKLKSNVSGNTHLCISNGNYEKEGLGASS
# T2: human GFRα3 expressed with a C-terminal mFc tag (human)
# T2 construct: also called hGFRα3-mFc
# T2 chain: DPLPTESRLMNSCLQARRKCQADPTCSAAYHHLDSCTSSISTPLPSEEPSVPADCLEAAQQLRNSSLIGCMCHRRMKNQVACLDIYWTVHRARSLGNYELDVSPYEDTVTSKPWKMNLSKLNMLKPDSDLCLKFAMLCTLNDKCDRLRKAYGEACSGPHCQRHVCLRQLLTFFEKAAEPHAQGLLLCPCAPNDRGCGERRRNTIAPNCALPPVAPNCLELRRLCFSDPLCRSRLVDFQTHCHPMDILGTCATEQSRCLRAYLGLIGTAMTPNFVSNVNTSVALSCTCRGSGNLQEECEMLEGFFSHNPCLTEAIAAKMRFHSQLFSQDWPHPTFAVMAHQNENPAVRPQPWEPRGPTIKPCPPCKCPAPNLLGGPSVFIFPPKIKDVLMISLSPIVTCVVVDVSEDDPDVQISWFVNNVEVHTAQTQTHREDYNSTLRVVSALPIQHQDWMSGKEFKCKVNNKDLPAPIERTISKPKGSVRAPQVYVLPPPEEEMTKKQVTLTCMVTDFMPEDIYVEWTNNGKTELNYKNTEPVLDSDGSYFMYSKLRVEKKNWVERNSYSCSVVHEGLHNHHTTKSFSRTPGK
# B1: H4H2292S (antibody, human IgG4, V domains shown)
# VH: EVQLVESGGGVVQPGRSLRLSCAASGFTFSSYGMHWVRQAPGKGLEWVSFIWYDGSNKYYADSVKGRFTISRDNSKNTLYLQMNSLTAEDTAVYYCARRGILTGTTAFDIWGQGTMVTVSS
# VL: DIQMTQSPSSLSASVGDRVTITCRASQSISSYLNWYQQKPGKAPKLLIYAASSLQSGVPSRFSGSGSGTDFTLTIRSLIPEDFATYYCQQTYNTPFTFGPGTKVEIK
# notes: human IgG4 Fc (H4H)
# B2: H4H2355S (antibody, human IgG4, V domains shown)
# VH: EVQLVESGGGLVQPGGSLRLSCAASGFTFSSYAMSWVRQVPGKGLEWVSAISGSGDNTYNAESVKGRFTISRDNSKNMLYLQMNSLRAEDTAVYYCAKTKFSSSLLFDYWGQGTLVTVSS
# VL: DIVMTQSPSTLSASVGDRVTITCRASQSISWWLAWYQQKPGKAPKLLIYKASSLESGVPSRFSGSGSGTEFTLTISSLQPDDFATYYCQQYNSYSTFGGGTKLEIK
# notes: human IgG4 Fc (H4H)
# B3: H4H2342P (antibody, human IgG4, V domains shown)
# VH: EVQLLESGGGLVQPGGSLRLSCAASGFTFSTYAMSWVRQAPGKGLEWVSAIRGNGVNTYYGDSMKGRFTISRDNSKDTLYLQMNSLRAEDTAVYYCAKNKWELLVFEYWGQGTLVTVSS
# VL: DIQMTQSPSSLSASVGDRVTITCRASQDISNYLAWYQQKPGKVPKLLIYAASTLQSGVPFRFSGSGSGTDFTLTISSLQPEDVATYYCQKYNSAPPFGPGTKVDIK
# notes: human IgG4 Fc (H4H)
# B4: H4H2236N3 (antibody, human IgG4, V domains shown)
# VH: EVQLLESGGNLVQPGGSLRLSCAASGFTFSSYAMTWVRQAPGKGLEWVSTISGSGTSTYYADSVKGRFTISRDNSRDTVFLQMNSLRAEDTAVYYCSKPSALRFLHWLAMDVWGQGTLVTVSS
# VL: DIQMTQSPSSLSAFVGDRVTITCRASQDIRNYLDWFQQKPGKAPKSLIYAASNLQSGVPSRFGGSGSGTDFTLTINSLQPEDFVTYYCQQYNSYPPTFGGGTKVEIK
# notes: human IgG4 Fc (H4H)
# B5: H4H2243N2 (antibody, human IgG4, V domains shown)
# VH: QVQLVQSGAEVKKPGASVKVSCKASGYTFTSYGIIWVRQAPGQGLEWMGWISGYNGNTNYAQNLQGRVTMTTDTSTTTAYMELRSLRSDDTAVYYCARWGIATRPYYYYGMDVWGQGTTVTVSS
# VL: B4 VL with F14S, R30T, D34A, N53S, R61K, G63S, N76S, V84A, G100P, E105D
# notes: human IgG4 Fc (H4H)
# B6: H4H2291S (antibody, human IgG4, V domains shown)
# VH: EVQLVESGGGLVQPGESLRLSCAASGFTFSNYAMSWVRQAPGKGLEWVSVISGSGGSTYYADSVKGRFTMSRDNSKNTLYLQMNSLRAEDTAVYYCAKPPSRAARYFNYGMDVWGQGTTVTVSS
# VL: AIRMTQSPSSVSASVGDRVTITCRASQGISSWLAWYQQKPGKAPKLLIYAASSLQSGVPSRFSGSGSGTDFTLTISSLQPEDFATYYCQQANSFPFTFGGGTKVEIK
# notes: human IgG4 Fc (H4H)
# B7: H4H2296S (antibody, human IgG4, V domains shown)
# VH: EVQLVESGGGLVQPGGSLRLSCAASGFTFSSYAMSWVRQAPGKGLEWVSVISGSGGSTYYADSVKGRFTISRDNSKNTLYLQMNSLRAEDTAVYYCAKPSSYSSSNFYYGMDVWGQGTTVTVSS
# VL: B6 VL with A1D, R3V, Q55R, S76T, Q90H, A91T, G100P
# notes: human IgG4 Fc (H4H)
# B8: H4H2295S (antibody, human IgG4, V domains shown)
# VH: EVQLVESGGGLVQAGGSLRLSCVASGFTFSSYAMSWVRQAPGKGLEWVSAISGSGGSTYSADSVKGRFTISRDNSKNTLYLQMNSLRAEDTAVYYCTKPSSYSSSNFYYGMDVWGQGTTVTVSS
# VL: B6 VL with A1D, R3Q, A50T, G68R, A91T, F94L, F96L, G100P
# notes: human IgG4 Fc (H4H)
# B9: H4H2294S (antibody, human IgG4, V domains shown)
# VH: B8 VH with A14P, V23A, A50V, S60Y, S63A, N77H, T118S
# VL: B6 VL with A1D, R3Q, M4L, A91T, T97P, G100P, E105D
# notes: human IgG4 Fc (H4H)
# B10: H4H2352S (antibody, human IgG4, V domains shown)
# VH: EVQLVQSGAEVKKPGASVKVSCKASGYTFTNYGITWVRQAPGQGLEWMGWISAYNGNTGYAQKFQGRVTMTTDTSTSTAYMELRSLRSDDTAVYYCAREDYDFWRAFDIWGQGTMVTVSS
# VL: EIVLTQSPGTLSLSPGERATLSCRASQSVSSTYLAWLQQKPGQAPRLLIYGASSRATGIPDRFSGSGSGTDFTLTINRLEPEDFAVYYCQQYAYSPYTFGQGTKLEIK
# notes: human IgG4 Fc (H4H); also called H4H2352S-1
# Legend:
# [1] = biological target: T1, human GFRα1 expressed with a C-terminal …; assay: BLI Octet, antigen captured on anti-hFc tips
# Protocol: The ability of anti-GFRα3 antibodies to bind to GDNF-family receptors was assessed using an Octet Red biosensor (Fortebio, Inc.). Antibodies were tested for binding to either human GFRα1 expressed with a C-terminal human Fc tag and a hexahistidine tag (hGFRα1-hFc-6His, R&D Systems #714-GR), human GFRα1 expressed with only a C-terminal human Fc tag (hGFRα1-hFc; SEQ ID: 376), human GFRα2 expressed with a C-terminal human Fc tag and a hexahistidine tag (hGFRα2-hFc-6His, R&D Systems #613-FR), human GFRα3 expressed with a C-terminal human Fc tag (hGFRα3-hFc, SEQ ID:371), or an irrelevant human Fc tagged protein. Antigens were captured onto anti-human Fc sensor tips from 10 ug/mL solutions for 5 minutes. The coated sensor tips were then blocked with a 100 ug/mL solution of irrelevant human Fc antibodies for 5 minutes. Blocked sensor tips were then submerged into wells containing […] of each anti-GFRα3 antibody or buffer alone for 10 minutes. The experiment was performed at 25° C. with a flow rate of 1000 rpm using HBST+BSA buffer (10 mM HEPES, 150 mM NaCl, 3 mM EDTA, 0.05% w/v Surfactant P20, 0.1 mg/mL BSA, pH 7.4). The binding response (measured in units of nm) at each step of the experiment was monitored and recorded.
# [2] = biological target: T2, human GFRα3 expressed with a C-terminal …; assay: SPR, Ab captured, 25C; 25° C.
# [3] = biological target: T3, human GFRα3 expressed with a C-terminal myc-myc-hexahistidine tag (human, UniProt O60609 32-374, biotinylated (sites not given) in ELISA format 2 and in the Octet cross-competition; not in SPR); assay: blocking ELISA 2, biotin-hGFRα3-mmH to coated hARTEMIN-mmH + hRET-10His; IC50 cell 'enhancer'
# T3 construct: also called hGFRα3-mmh; hGFRα3-mmH
# Protocol: The equilibrated sample solutions were then transferred to the hARTEMIN-mmH-coated plate. […] Absorbance was recorded at 450 nm on a Victor X5 plate reader (Perkin Elmer) to determine the amount of free hGFRα3-hFc in the pre-equilibrated hGFRα3-hFc-antibody solutions that was able to bind to the plate coated with hARTEMIN-mmH. IC₅₀ values, defined as the concentration of antibody required to reduce the signal from a constant concentration of hGFRα3-hFc by 50%, were calculated from the data using Prism software from GraphPad. The absorbance measured at the constant amount of 120 pM hGFRα3-hFc in the absence of anti-GFRα3 antibody is defined as 0% blocking and the absorbance with no added hGFRα3-hFc is defined as 100% blocking. The observed absorbance in the wells containing the highest antibody concentration was used to calculate the maximum blocking percent shown in the table.
# In the second ELISA format, the plates, samples and data were processed similarly as for the first format except both hARTEMIN-mmH and human RET with a C-terminal 10 histidine tag (hRET-10His; R&D Systems, #1168-CR/CF) were coated for the blocking ELISA experiment. The 96-well microtiter plates were coated with a mixture of 1.2 ug/ml hARTEMIN-mmH and 6.9 ug/ml hRET-10His proteins in PBS overnight at 4° C. and then blocked with a solution of 0.5% (w/v) BSA. A constant amount of biotinylated human GFRα3 with a C-terminal myc-myc-hexahistidine tag (biotin-hGFRα3-mmH; SEQ ID:370) at 1 nM was pre-mixed with varied amounts of anti-GFRα3 antibodies, ranging from 0 to ˜100 nM in serial dilutions, followed by a 1 hour incubation at RT to allow antibody-biotin-hGFRα3-mmH binding to reach equilibrium. The equilibrated samples were then transferred to the coated plate. After 1 hour of binding, the plate was washed, then the bound biotin-hGFRα3-mmH was detected using HRP conjugated streptavidin (Pierce, #N200), and colorimetric signals were developed using TMB HRP substrates.
# T3 sequence (O60609 other isoform, or with tags, fused parts or gaps limits assumed): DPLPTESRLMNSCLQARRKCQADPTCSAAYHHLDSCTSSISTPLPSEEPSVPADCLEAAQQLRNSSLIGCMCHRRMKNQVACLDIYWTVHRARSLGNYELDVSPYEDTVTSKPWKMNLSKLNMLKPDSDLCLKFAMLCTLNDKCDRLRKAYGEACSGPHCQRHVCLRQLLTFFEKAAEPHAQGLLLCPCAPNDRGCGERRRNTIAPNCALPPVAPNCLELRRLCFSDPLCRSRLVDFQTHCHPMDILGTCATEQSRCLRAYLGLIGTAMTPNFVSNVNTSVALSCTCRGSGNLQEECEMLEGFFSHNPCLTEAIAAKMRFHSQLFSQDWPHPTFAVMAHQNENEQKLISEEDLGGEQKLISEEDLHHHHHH
Binder,binding result [1],koff [2],% max blocking [3]
B1,no binding (tested: 100 ug/mL),≤ 1e-06 s⁻¹,–
B2,–,–,95%
B3,no binding (tested: 100 ug/mL),–,–
B4,–,–,68%
B5,no binding (tested: 100 ug/mL),–,–
B6,–,–,28%
B7,–,–,91%
B8,–,–,44%
B9,no binding (tested: 100 ug/mL),–,–
B10,no binding (tested: 100 ug/mL),–,–
